In a protein production outcome set (Wang et al. 2014) one finds protein production data, which are given here for 17 sequences.
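Further: failed if final PepcDB status was selected cloned or expressed and not failed if soluble or beyond.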

This data set is described as follows: label from the status in PepcDB records.
Regarding “MVVVCASHIQPAIICRFTWLRFLMEIILIRHGKPTSANNPVLNAVDFTKWVRRYNFSDVSTNSRPDSILDEYKSHYIVSSDLERAIHSASIYTGQSPELTSKLYREMEIPRYKFPLRFKAMTWVYINRAFWMLGLKGSFESYRQAKIRAELASDHLVELAREQDKVILFGHGYLNLHIRRSLIKKGWKLNSKSNGFWGISSLEGLEHHHHHH”, the protein production entry is given as “failed”. Next, “MVVYPNEEAENGSLRFVDFVNKTFALLGNSPIKKFSLRHEPRLYCVDAYLRWIFTAMEQERGLLELHLYADRYYYPVGIERELFTSNTLVKLTLSGRYDFQVETVFLPALKSLSLSSSFEIGFDKYCNLLDGFPALEELYIREAVSELSNALLSSGTFVKCASIKRLVVFTDCPKFKEDEDHQEPCFIAPSLVYLDYSSYLSENYDLIDLNSLVEARLNLRLLESFNNYGSSDNDGDVYGWDFNVPFDYYGDVTNLVAGITNITTLHLSPDSLEVFHFRCKSIPVFNNLLLNLSIESNKRNGWQVMPLLIRSCPNLHTLVIKGFVHRVTSKCGDACACIPKKQRKIGKKEEISEYGGSFQELEQMRHFLGKLERLETVKVGVHAENNNNNEFLRANLLTLPRLSSKCNNIQFI”: “failed”; “MVWAPLGPPRTDCLTLLHTPSKDSPKMSLEWLVAWSWSLDGLRDCIATGIQSVRDCDTTAVITVACLLVLFVWYCYHVGREQPRPYVSVNSLMQAADANGLQNGYVYCQSPECVRCTHNEGLNQKLYHNLQEYAKRYSWSGMGRIHKGIREQGRYLNSRPSIQKPEVFFLPDLPTTPYFSRDAQKHDVEVLERNFQTILCEFETLYKAFSNCSLPQGWKMNSTPSGEWFTFYLVNQGVCVPRNCRKCPRTYRLLGSLRTCIGNNVFGNACISVLSPGTVITEHYGPTNIRIRCHLGLKTPNGCELVVGGEPQCWAEGRCLLFDDSFLHAAFHEGSAEDGPRVVFMVDLWHPNVAAAERQALDFIFAPGR”: “failed”; “MVWPFKSKFRKQIARIEITGAIASGTRKRVLEALKTVEERKFPALLLRIDSPGGTVGDSQEIYSALKRLREKIKIVASFGNISASGGVYIGMGAEHIMANPGTITGSIGVILRGNNLERLLDKIGVSFKVIKSGPYKDILSFDRELTEPEQDILQELIDTSYQQFVQTVAEGRSLAVDKVKSFADGRIFTGQQALELGVVDRLGTEEEARRWTAELVGLDPEKTPCYTLEERKPLLSRVLPGSRKGYSRLGASIDWLEFEMSTSGLPLWLYRP”: “failed”. Next, “MVYKPLEASDRTELRALQSDRLQRIVTHAHENVPFYREKLDAAGVSPEDIQSIDDITKLPMTTKEDFRDEYPDGLFAVDDEEVARIHASSGTTGKPKIVSYTDDDLDTWSEVVARSLAASGTEAGDTVQNAYGYGLFTGGLGIHYGTEELGASVVPIGSGQTQRQVELMTDLESDVFTCTPSYALYLAETAEEMGHDPRDLPISTIIFGAEPCTDPMREEIEERLGVDGIDIYGLSEIIGPGVSCECHEAKDGLHIWEDHFYPEVIDPHTKEPVEEGEEGELVLTTLTKEALPVFRYRTGDLTTLNYDECACGRTMVRMDNVTGRTDDLLIVRGVNLYPSEIEHAVLDIDGVAPHYRIDLYKEDNLDILELTIERTAEQGPGDKALEDEIIERLENVLAFTPDELELVAPGSIERTQVGKVKRVYDHRD”: “not failed”; “MWALLLRFYIALPLSVIVLLVLKTSFPTHKQALHSYFAGSFSLIGSQIFTYAATQYLSSGMIALMFGLAPIMAGLIGRFAFGQHLFKLQWLGMAVAVCGLAIICLNGSNQHVHPFGIVLMLVSVFVYSFSIFWVKKVNAKIQPMAQATGSILVSSILASCLIPFIWQYAPTHLPQAKSLFALIYTVLMASLVAMFCYFKLVQNIKPTTLSLTTVITPMLAMIIGAVLNHEQLSIMVFVGAFIILFGLFLYFYKDIQANRNFAQHIKSK”: “failed”. As for “MWDMKFVDRIDEAARLKDALAREKSSLVVMYGRRRLGKSTLIKRVLSENDVYFLADRSEGQHQRALLAKVIAQVFPDFEKLSYPDWESMFRAVNYRTDKRFTLCLDEFPYLVEQSPELPSVLQKLVDEKQLKYNLVLCGSSQNMMYGLFLDSTAPLYGRADEIMRLTPIRLPYIQEALNLNAMNAIEEYAIWGGVPRYWELRENRISLDDAMWHNILSVNGTLYEEPVKLFQDDVKDIVKTSTIMSYIGTGANRLSEIAARCNEPATNLSRPLKKLVDLGFLEKDVPFGIDEKNAKKSLYKIADPFMAFYYQFVVPNRSFIELGRRLPIEQALTAHFSEYVSMQWEKLCRDAVTGNLVNGVVYGKAKRWWGSVLNEDKKPEQVEFDVMAESLDKKYLLVGECKWTTGENGKQLTAELLRKANLLPFAKNYTIVPVLFLKNAPKDDAGNAMLSENVVELMK”, the entry is “failed”. Take “MWEPACKNRTRTLAGLAPLLASIQSPSPPSVVLRLDPSTRTQALCPHPATARGNPMSRIFITGSTDGLGLAAARTLISQGHDVVLHARSRQRAAAIADTSAAALSLVIGDLASAAETRSIADQVNAFGRMDAVIHNAGIYLERSRGETPEGHAKTLAVNVLAPYLLTAWITRPDRLIYLSSGMHRSGASTLDDIDWKRRPWNASQAYSESKLYIATLAALARHWPDALSNAVDPGWVPTKMGGAGAPDDLEMGHLTQTWLATSDEGAAKVSGGYWYHRQRREAAAEVGDVGFQEALVGRLAELTGVRLFAERG”: the protein production entry is “failed”. As for “MWFQLSSLRSILNVSTALRQVVVRTPWYAKRKSYKVLFWREITPLAIPIFLENTCVLLMGVLSTFLVSWLGKEAMAGVGLADSFNMVIMAFFAAIDLGTTVVVAFSLGKRDRRRARAAARQSLVIMTLFAVVLAVVIHYFGSEIINIVAGEATPEVKGLALTYLELTVLSYPAAAIALIGSGALRGAGNTKIPLMINGGMNILNIVISSILIYGAFSWQGLGFAGAGLGLTISRYIGAVAIIWVLMIGFNPALRIPLKSYLKPLNFGIIWEVMGIGIPASIESVLFNGGKLLTQMFVAGMGTNVIAGNFIAFSVAALINLPGNALGSASTIITGKRLGTGQIGQAERQLRHVFWMSTIVLTAIAWGTAPFAGLFASFYTQEQDVKEVVKVLLWLNAAFMPIWAAAWVLPSGFKGARDVRFAMWVSMLGMWGCRVVAGYTLGIVLGMGVVGVWLGMFLDWAVRGALFYWRLISGRWLWRYPRVKRE”, the entry is “failed”.

For the sequence “MWGRLLLWPLVLGFSLSGGTQTPSVYDESGSTGGGDDSTPSILPAPRGYPGQVCANDSDTLELPDSSRALLLGWVPTRLVPALYGLVLVVGLPANGLALWVLATQAPRLPSTMLLMNLATADLLLALALPPRIAYHLRGQRWPFGEAACRLATAALYGHMYGSVLLLAAVSLDRYLALVHPLRARALRGRRLALGLCMAAWLMAAALALPLTLQRQTFRLARSDRVLCHDALPLDAQASHWQPAFTCLALLGCFLPLLAMLLCYGATLHTLAASGRRYGHALRLTAVVLASAVAFFVPSNLLLLLHYSDPSPSAWGNLYGAYVPSLALSTLNSCVDPFIYYYVSAEFRDKVRAGLFQRSPGDTVASKASAEGGSRGMGTHSSLLQ”, the protein production entry is given as “failed”. As for “MWHSIEQAISVETGKSFYISEKKEISTRPASSSSFTCSYDNKEPPPNLSFKITDGHRSYFLKINNKDYLENFQAEAYSLKQLNSLANIASPNVTAIGTSLDKSFLVLDYIDFSKAKPMLWYQLGQQLAQMHYENRHGQFGWQHDNFIGSTIQPNHWSSNWTTFFSDQRIAWQLQLLSERSIMLGNIEHITQVCHDALLHHQVSPCLVHGDLWQGNTGFSGEKAMIFDPACYYGDREVDIAMTELFGHFPDDFYHGYQAEYPLDDGYEQRKLVYNFYHILNHANIFGGIYIDQAKATLSRIMSLPLHLEHHHHHH”, the entry is “failed”; as for “MWLRRKRAPVNGVVTLDRRHLYILPTRGGIGFSVLLATMLLTSLNYAISLGFALTFLLAGIGMGCMWMAYRNLLDLRVSAGPVTPAFVGECAIFTLHVDNQDAAARIGIEARTPLSGADTETAALTLDGVSSGTLPVRLSAIRRGRLVLPRVTLSSRFPFGLFRVWSYADLGLATVVYPAPEASPPPLPRHPQSDDADDGAASFAADDGIDQLRRYRPGDPLHRIAWKHSARTGKWLTRSGHTPQQPSCWIDWNTLPPAMDTEARLSRLCAWVLMAGEVSEIGLRLPGVEITPGRGSAHVRACLEALALWPERRAR”, “failed”. Next, “MWNATPSEEPGFNLTLADLDWDASPGNDSLGDELLQLFPAPLLAGVTATCVALFVVGIAGNLLTMLVVSRFRELRTTTNLYLSSMAFSDLLIFLCMPLDLVRLWQYRPWNFGDLLCKLFQFVSESCTYATVLTITALSVERYFAICFPLRAKVVVTKGRVKLVIFVIWAVAFCSAGPIFVLVGVEHENGTDPWDTNECRPTEFAVRSGLLTVMVWVSSIFFFLPVFCLTVLYSLIGRKLWRRRRGDAVVGASLRDQNHKQTVKMLAVVVFAFILCWLPFHVGRYLFSKSFEPGSLEIAQISQYCNLVSFVLFYLSAAINPILYNIMSKKYRVAVFRLLGFEPFSQRKLSTLKDESSRAWTESSINT”: “failed”. For the sequence “MWNATPSEEPGFNLTLADLDWDASPGNDSLGDELLQLFPAPLLAGVTATCVALFVVGIAGNLLTMLVVSRFRELRTTTNLYLSSMAFSDLLIFLCMPLDLVRLWQYRPWNFGDLLCKLFQFVSESCTYATVLTITALSVERYFAICFPLRAKVVVTKGRVKLVIFVIWAVAFCSAGPIFVLVGVEHENGTDPWDTNECRPTEFAVRSGLLTVMVWVSSIFFFLPVFCLTVLYSLIGRKLWRRRRGDAVVGASLRDQNHKQTVKMLGGSQRALRLSLAGPILSLCLLPSL”, the protein production result is “failed”. Regarding “MWNLTRRQWRQILVTVILALAVLLFFLWPLPKYIEGPGEADNLKSFVTVDKHPDKHKGKYMITSVALAQARPVSYLYAKFNPYYSIESVASVTGGESNATYDKVQNFYMKSAINESIYTAYRAAHKTVKRHYLGIYVLSVDRQSPFAQALKVGDTVTEVNGHHFNSMTGYQRYIQRQKVGQRATITYQRNGKTHHVTAKLMRLPTKKAGIGITLTDNVKVSARPKVQVNPGNIGGPSGGLMFSLQIYTQVTGQDLRHGRKIAGTGTVDGDGNVGEIGGIDKKIIAAKRAGATVFFAPYVKPTKLLLKYEEQHQTNYQLAKATAKKYAPNMKVVPVKSFDDAVHYLRTHR”, the protein production result was “failed”. As to “MWPDRRLIDLFKTEFPIVLAPMAGVMDAELVIAAAQGGALGSLPCAMLSAEKAREQVGLIRQRVKAPVNMNFFCHTPVDLTPEAEARWKQRLAGYYREHGLDPAAPISAANRAPFDAAFCEVVEELKPDVVSFHFGLPEQELLKRVKAAGSLVISSATTVKEAVWLERHGADAVIAQGAEAGGHRGMFLTDKIAEQPGTFALVPQVADAVKVPVIAAGGIADGRGIAAAFALGASGVQIGSAYLRCPESKVSAAGRAALAEGRDDSTVITNVMTGRPARGVQNRLMREAGPISPDAPPFPHAATALGPLKAAAEKQGRVDFTNLWAGQAIALGRELPAAELTRDLAKSALARMKALAG”, the protein production entry is given as “failed”.

Turning to “MWPQDPSRKEVLRFAVSCRILTLMLQALFNAIIPDHHAEAFSPPRLAPSGFVDQLVEGLLGGLSHWDAEHFLFIAEHGYLYEHNFAFFPGFPLALLVGTELLRPLRGLLSLRSCLLISVASLNFLFFMLAAVALHDLGCLVLHCPHQSFYAALLFCLSPANVFLAAGYSEALFALLTFSAMGQLERGRVWTSVLLFAFATGVRSNGLVSVGFLMHSQCQGFFSSLTMLNPLRQLFKLMASLFLSVFTLGLPFALFQYYAYTQFCLPGSARPIPEPLVQLAVDKGYRIAEGNEPPWCFWDVPLIYSYIQDVYWNVGFLKYYELKQVPNFLLAAPVAILVAWATWTYVTTHPWLCLTLGLQRSKNNKTLEKPDLGFLSPQVFVYVVHAAVLLLFGGLCMHVQVLTRFLGSSTPIMYWFPAHLLQDQEPLLRSLKTVPWKPLAEDSPPGQKVPRNPIMGLLYHWKTCSPVTRYILGYFLTYWLLGLLLHCNFLPWT”, the protein production entry is reported as “failed”.
